Laboratory results reported in the supplement of paper PMC11246515.
± gives the standard deviation of the averaged measurements.

Test: total protein half-life in vivo (active degradation + dilution); higher = more stable protein
[1] = E. coli NCM3722 delta-clpP delta-lon delta-hslV, growth: N-lim chemostat, doubling time 6 h
[2] = E. coli NCM3722 delta-clpP, growth: N-lim chemostat, doubling time 6 h
[3] = E. coli NCM3722 delta-hslV, growth: N-lim chemostat, doubling time 6 h
[4] = E. coli NCM3722 delta-lon, growth: N-lim chemostat, doubling time 6 h
[5] = E. coli NCM3722 delta-smpB, growth: N-lim chemostat, doubling time 6 h
[6] = wild type E. coli NCM3722, growth: C-lim chemostat, doubling time 3 h
[7] = wild type E. coli NCM3722, growth: C-lim chemostat, doubling time 12 h
[8] = wild type E. coli NCM3722, growth: N-lim chemostat, doubling time 6 h
[9] = wild type E. coli NCM3722, growth: N-lim chemostat, doubling time 12 h
[10] = wild type E. coli NCM3722, growth: P-lim chemostat, doubling time 6 h
[11] = wild type E. coli NCM3722, growth: P-lim chemostat, doubling time 12 h
[12] = wild type E. coli NCM3722, growth: C-lim chemostat, doubling time 6 h

Row | Sequence | total protein half-life in vivo [1] | total protein half-life in vivo [2] | total protein half-life in vivo [3] | total protein half-life in vivo [4] | total protein half-life in vivo [5] | total protein half-life in vivo [6] | total protein half-life in vivo [7] | total protein half-life in vivo [8] | total protein half-life in vivo [9] | total protein half-life in vivo [10] | total protein half-life in vivo [11] | total protein half-life in vivo [12]
1 | MTTETRSLYSQLPAIDRLLRDSSFLSLRDTYGHTRVVELLRQMLDEAREVIRGSQTLPAWCENWAQEVDARLTKEAQSALRPVINLTGTVLHTNLGRALQAEAAVEAVAQAMRSPVTLEYDLDDAGRGHRDRALAQLLCRITGAEDACIVNNNAAAVLLMLAATASGKEVVVSRGELVEIGGAFRIPDVMRQAGCTLHEVGTTNRTHANDYRQAVNENTALLMKVHTSNYSIQGFTKAIDEAELVALGKELDVPVVTDLGSGSLVDLSQYGLPKEPMPQELIAAGVSLVSFSGDKLLGGPQAGIIVGKKEMIARLQSHPLKRALRADKMTLAALEATLRLYLHPEALSEKLPTLRLLTRSAEVIQIQAQRLQAPLAAHYGAEFAVQVMPCLSQIGSGSLPVDRLPSAALTFTPHDGRGSHLESLAARWRELPVPVIGRIYDGRLWLDLRCLEDEQRFLEMLLK [P0A821] | 6.33 ± 0.17 h | 6.19 ± 0.19 h | 5.62 ± 1 h | 5.86 ± 0.47 h | 5.49 ± 0.32 h | 3.16 ± 0.51 h | 11.7 ± 0.94 h | 5.64 ± 0.39 h | 10.6 ± 1 h | 6.06 ± 0.4 h | 11.9 ± 1.1 h | –
2 | MHGNSEMQKINQTSAMPEKTDVHWSGRFSVAPMLDWTDRHCRYFLRLLSRNTLLYTEMVTTGAIIHGKGDYLAYSEEEHPVALQLGGSDPAALAQCAKLAEARGYDEINLNVGCPSDRVQNGMFGACLMGNAQLVADCVKAMRDVVSIPVTVKTRIGIDDQDSYEFLCDFINTVSGKGECEMFIIHARKAWLSGLSPKENREIPPLDYPRVYQLKRDFPHLTMSINGGIKSLEEAKAHLQHMDGVMVGREAYQNPGILAAVDREIFGSSDTDADPVAVVRAMYPYIERELSQGTYLGHITRHMLGLFQGIPGARQWRRYLSENAHKAGADINVLEHALKLVADKR | 4.26 ± 0.35 h | 4.49 ± 1.1 h | 4.51 ± 0.81 h | 4.31 ± 0.14 h | 4.07 ± 0.18 h | 3.01 ± 0.14 h | 9.77 ± 1.5 h | 4.2 ± 0.5 h | 6.88 ± 0.21 h | 6.57 ± 1.6 h | 10.9 ± 1.2 h | 5.432 ± 0.022 h
3 | MDSQRNLLVIALLFVSFMIWQAWEQDKNPQPQAQQTTQTTTTAAGSAADQGVPASGQGKLISVKTDVLDLTINTRGGDVEQALLPAYPKELNSTQPFQLLETSPQFIYQAQSGLTGRDGPDNPANGPRPLYNVEKDAYVLAEGQNELQVPMTYTDAAGNTFTKTFVLKRGDYAVNVNYNVQNAGEKPLEISSFGQLKQSITLPPHLDTGSSNFALHTFRGAAYSTPDEKYEKYKFDTIADNENLNISSKGGWVAMLQQYFATAWIPHNDGTNNFYTANLGNGIAAIGYKSQPVLVQPGQTGAMNSTLWVGPEIQDKMAAVAPHLDLTVDYGWLWFISQPLFKLLKWIHSFVGNWGFSIIIITFIVRGIMYPLTKAQYTSMAKMRMLQPKIQAMRERLGDDKQRISQEMMALYKAEKVNPLGGCFPLLIQMPIFLALYYMLMGSVELRQAPFALWIHDLSAQDPYYILPILMGVTMFFIQKMSPTTVTDPMQQKIMTFMPVIFTVFFLWFPSGLVLYYIVSNLVTIIQQQLIYRGLEKRGLHSREKKKS | 6.9 ± 1.3 h | 6.01 ± 0.51 h | 6.03 ± 0.043 h | 6.29 ± 0.36 h | 6.08 ± 0.42 h | 3.2 ± 0.74 h | – | 6.08 ± 0.64 h | 12.2 ± 0.55 h | 6.66 ± 0.93 h | 12.6 ± 0.7 h | 6.37 ± 1.8 h
4 | MLTKDLSITFCGVKFPNPFCLSSSPVGNCYEMCAKAYDTGWGGVVFKTIGFFIANEVSPRFDHLVKEDTGFIGFKNMEQIAEHPLEENLAALRRLKEDYPDKVLIASIMGENEQQWEELARLVQEAGADMIECNFSCPQMTSHAMGSDVGQSPELVEKYCRAVKRGSTLPMLAKMTPNIGDMCEVALAAKRGGADGIAAINTVKSITNIDLNQKIGMPIVNGKSSISGYSGKAVKPIALRFIQQMRTHPELRDFPISGIGGIETWEDAAEFLLLGAATLQVTTGIMQYGYRIVEDMASGLSHYLADQGFDSLQEMVGLANNNIVPAEDLDRSYIVYPRINLDKCVGCGRCYISCYDGGHQAMEWSEKTRTPHCNTEKCVGCLLCGHVCPVGCIELGEVKFKKGEKEHPVTL | 4.6 h | – | – | – | – | 0.869 ± 0.52 h | 1.67 ± 0.23 h | – | – | – | – | 2.35 h
5 | MEKGTVKWFNNAKGFGFICPEGGGEDIFAHYSTIQMDGYRTLKAGQSVQFDVHQGPKGNHASVIVPVEVEAAVA [P0A968] | 2.08 h | 1.11 ± 0.089 h | 0.144 h | – | – | 0.333 ± 0.022 h | 0.224 h | – | – | – | – | 0.386 h
6 | MATLKDIAIEAGVSLATVSRVLNDDPTLNVKEETKHRILEIAEKLEYKTSSARKLQTGAVNQHHILAIYSYQQELEINDPYYLAIRHGIETQCEKLGIELTNCYEHSGLPDIKNVTGILIVGKPTPALRAAASALTDNICFIDFHEPGSGYDAVDIDLARISKEIIDFYINQGVNRIGFIGGEDEPGKADIREVAFAEYGRLKQVVREEDIWRGGFSSSSGYELAKQMLAREDYPKALFVASDSIAIGVLRAIHERGLNIPQDISLISVNDIPTARFTFPPLSTVRIHSEMMGSQGVNLVYEKARDGRALPLLVFVPSKLKLRGTTR | 5.54 ± 0.078 h | 6.95 ± 1.2 h | 5.31 ± 0.62 h | 5.72 ± 0.54 h | 5.35 ± 0.066 h | 2.89 ± 0.27 h | 9.8 ± 0.15 h | 5.07 ± 0.53 h | – | 6.01 ± 0.76 h | 13.4 ± 2.6 h | 5.94 ± 0.29 h
7 | MMIRERIEEKLRAAFQPVFLEVVDESYRHNVPAGSESHFKVVLVSDRFTGERFLNRHRMIYSTLAEELSTTVHALALHTYTIKEWEGLQDTVFASPPCRGAGSIA [P0ABE2] | 3.71 ± 0.15 h | – | – | 1.81 ± 0.13 h | 1.55 h | 1.53 ± 0.071 h | 3.32 h | 1.99 ± 0.31 h | 3.19 h | 3.23 h | 5.55 ± 0.6 h | 2.52 ± 0.14 h
